Molecular target: ZFP K-Ras G12D (six-finger zinc finger protein) (synthetic construct)
Experiment: dot blot, 400 ng gDNA of PANC-1 (heterozygous G12D), ZFP 10 ug/ml, TBS-T/milk, RT; much stronger than WT or G13D gDNA
Details: tags: N-terminal 3xFLAG, NLS; expressed in E. coli from pET-30a(+)
Protocol: Genomic DNA (gDNA) was extracted from cancer cells using QIAamp DNA Mini Kit (51104, Qiagen Sciences, Inc., Germantown, MD). Concentration of the gDNA was measured by Qubit dsDNA BR Assay kit (Q32853, Invitrogen™, Thermo Fisher Scientific Inc., Waltham, MA) and adjusted to the same contraction. 400 ng of each gDNA was spotted onto a nitrocellulose membrane (15356, Sigma-Aldrich, Burlington, MA) using narrow-mouth pipette tip. Membranes were allowed to dry and then blocked by soaking in 5% non-fat milk in tris-buffered saline tween (TBS-T) at room temperature (RT) for 1 hour. Blocked membranes were incubated with ZFP ([…]) dissolved in milk/TBS-T for 1 hour at RT. The membranes were washed three times with TBS-T and incubated with anti-FLAG@antibody conjugated with horseradish peroxidase (HRP) (86861S, Cell Signaling Technology, Inc., Danvers, MA). The membranes were then washed three times with TBS-T (15 min×1, 5 min×2) and once with TBS (5 min). The signals were developed with enhanced chemiluminescent (ECL) horseradish peroxidase (HRP) substrate (SuperSignal West Pico PLUS Chemiluminescent Substrate, Catalog #34580, Thermo Fisher Scientific) and captured using the ChemiDoc MP Imaging System (12003154, Bio-Rad Laboratories, Hercules, CA).
FIG. 4 depicts dot blot results showing that the ZFPs from Example 3 can distinguish DNA sequences with one or two point mutations in vitro. […]

ZFP K-Ras G12D (six-finger zinc finger protein) (synthetic construct), sequence (chain, as listed by the source G12D G12D): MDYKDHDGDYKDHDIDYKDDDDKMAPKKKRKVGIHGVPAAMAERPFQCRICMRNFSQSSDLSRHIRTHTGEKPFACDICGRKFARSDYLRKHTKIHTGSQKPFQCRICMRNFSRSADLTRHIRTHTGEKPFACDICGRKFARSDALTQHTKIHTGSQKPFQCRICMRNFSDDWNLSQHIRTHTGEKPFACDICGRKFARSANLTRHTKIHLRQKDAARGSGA

B1: KRAS G12D target site (codon 12 GAT) (dsDNA)
DNA 1: GAGCTGATGGCGTAGGCA
DNA 2: TGCCTACGCCATCAGCTC
binding result: binds

From US20250051406, “CELL TARGETING COMPOSITIONS AND METHODS” (The Trustees of Indiana University, published 2025)
